We go through two molecules from publication PMC10866667, “CTRP4/interleukin-6 receptor signaling ameliorates autoimmune encephalomyelitis by suppressing Th17 cell differentiation” (The Journal of Clinical Investigation, 2023).

What is called IC50 is the concentration at which inhibition is half-maximal. Read a low IC50 as higher potency. The term Kd denotes the concentration at which binding is half-saturated.

For test [1], the target named is T1, IL-6 receptor (IL-6R), in Jurkat cell membrane extract (UniProt P08887 20-468).
T1 construct: IL-6 receptor in membrane protein or membrane extract of Jurkat cells; also called IL-6Rα; source: Jurkat cells, membrane extract
T1 sequence (looked up): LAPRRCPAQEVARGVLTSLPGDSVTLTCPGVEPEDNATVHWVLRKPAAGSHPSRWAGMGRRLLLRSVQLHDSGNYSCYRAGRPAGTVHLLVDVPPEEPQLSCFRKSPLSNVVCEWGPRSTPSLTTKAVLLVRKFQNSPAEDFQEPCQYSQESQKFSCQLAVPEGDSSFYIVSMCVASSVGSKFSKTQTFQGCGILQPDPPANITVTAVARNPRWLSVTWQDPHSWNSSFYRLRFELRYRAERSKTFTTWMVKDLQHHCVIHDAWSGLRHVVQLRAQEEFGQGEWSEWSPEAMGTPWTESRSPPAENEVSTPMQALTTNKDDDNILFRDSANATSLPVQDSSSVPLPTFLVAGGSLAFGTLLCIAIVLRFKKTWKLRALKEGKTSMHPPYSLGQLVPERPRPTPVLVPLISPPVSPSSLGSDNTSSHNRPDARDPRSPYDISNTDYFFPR
Briefly: radioligand binding; competition: Jurkat cell membrane extract and 125I-CTRP4 with different concentrations of unlabeled CTRP4, OSM or IL-6; 24 hours at 4°C, 25% PEG, γ counter. The settings on record: one partner purified.

Test [2] has as its target T1, IL-6 receptor (IL-6R), in Jurkat cell …. Briefly: radioligand binding; saturation: equivalent quantities of Jurkat cell membrane extract with 2-fold serial dilutions of 125I-CTRP4; nonspecific binding with 500-fold excess of CTRP4; 24 hours at 4°C, 25% PEG, γ counter. Particulars: one partner purified.

B1: rhCTRP4 protein (unlabeled) (natural protein)
chain: not shown
notes: rhCTRP4 protein purified from CTRP4-CHO cells; also called unlabeled CTRP4; recombinant CTRP4 protein
Molecule B1 gave a 50% inhibitory concentration (IC50) in test [1] of 77.2 nM.

B2: 125I-CTRP4 (natural protein)
chain: not shown
modifications: 125I label (chloramine T)
notes: rhCTRP4 protein purified from CTRP4-CHO cells; also called radio-iodinated CTRP4; 125I-labeled CTRP4
In the case of B2, the Kd in test [2] was 3.94 nM.
